Reference: a protein production outcome set (Wang et al. 2014)

Test: label from the status in PepcDB records

Sequence	protein production
MQSRSKSDMKPIRKEILNPGNAYIELTPGTRRLTPHDIGLFQVKFHFQTRRAGDSRIIDDSRKMEKPMELVLGKKFKLEVWELIVQQMSLNEVAKFTVHKSLCAQYPFISKTLRDIGKKPEERRHCCGMTLQNEGIGYTDLDELLQNPSDLEFIIELFSIELPEQYEKERWQMSDDEKMLATSTLRERGNNFYKASRFTEAETCYREAVGIVEQLMLKEKPHDEEWQELAAIKTPLLLNYAQCRLIAGDFYAVIEHCNEVLTLDPRNVKALFRRAKAHAGAWNPAQARRDFLDALALDASLKSTVSKELKSIEDQQQARNVQDRIHMQKLF	failed
MQSVSSMSSMDHFWLVIFCACVAFIPRFFPLLFFTKRKIPKWFNEWMRFVPVSLFTALVVKSVFIDSKYAVITSGNLGMIISAILVGFVAYRTRSMTLSVVIGLVSVMIFVLLIHI	failed
MQSVWFYMGKSFKIHCLTYIIFILQWLIFLSCKKHYKGEKVDRKAGVILFWHGKLALMPFAFRHYRQKNKKAYVMISHHKDGEQIAKIIKLFGLDTVRGSTSRGASSALRAAFKVLEQNDDIVITPDGPRGPYHSISDGSIILAQKKELKIRILNYEANRFWKFKSWDKMILPKPFSKITYSLSEPLDILSLDKEKAKEFLMKQFDKISLADQFKE	failed
MQTACQAVQHQRGRRQYNKLRNLLKDARHDCILFANEFQQCCYLPRERGESMEKWQTRSIYNAAVWYYHHCQDRMPIVMVTEDEEAIQQYGSETEGVFVITFKNYLDNFWPDLKAAHELCDSILQSRRERENESQESHGKEYPEHLPLEVLEAGIKSGRYIQGILNVNKHRAQIEAFVRLQGASSKDSDLVSDILIHGMKARNRSIHGDVVVVELLPKNEWKGRTVALCENDCDDKASGESPSEPMPTGRVVGILQKNWRDYVVTFPSKEEVQSQGKNAQKILVTPWDYRIPKIRISTQQAETLQDFRVVVRIDSWESTSVYPNGHFVRVLGRIGDLEGEIATILVENSISVIPFSEAQMCEMPVNTPESPWKVSPEEEQKRKDLRKSHLVFSIDPKGCEDVDDTLSVRTLNNGNLELGVHIADVTHFVAPNSYIDIEARTRATTYYLADRRYDMLPSVLSADLCSLLGGVDRYAVSIMWELDKASYEIKKVWYGRTIIRSAYKLFYEAAQELLDGNLSVVDDIPEFKDLDEKSRQAKLEELVWAIGKLTDIARHVRAKRDGCGALELEGVEVCVQLDDKKNIHDLIPKQPLEVHETVAECMILANHWVAKKIWESFPHQALLRQHPPPHQEFFSELRECAKAKGFFIDTRSNKTLADSLDNANDPHDPIVNRLLRSMATQAMSNALYFSTGSCAEEEFHHYGLALDKYTHFTSPIRRYSDIVVHRLLMAAISKDKKMEIKGNLFSNKDLEELCRHINNRNQAAQHSQKQSTELFQCMYFKDKDPATEERCISDGVIYSIRTNGVLLFIPRFGIKGAAYLKNKDGLVISCGPDSCSEWKPGSLQRFQNKITSTTTDGESVTFHLFDHVTVRISIQASRCHSDTIRLEIISNKPYKIPNTELIHQSSPLLKSELVKEVTKSVEEAQLAQEVKVNIIQEEYQEYRQTKGRSLYTLLEEIRDLALLDVSNNYGI	failed
MQTESNPLAERFIARNLLDLAIRITLIGGLTVWCYRVAEPFIGMLLWSIILAVTLAPLHMRLTRLLGARPRLAAVVLTLATMLVLLVPGAMLTASLGDSLVNIFHHSTGRIVRIPAPPDFVIELPLIGVRLHEIWLQAMTNLQDVLKPLQPHLATAGRWLLAGMASAGLGIAVFLASIAIAGVILVYADPAKRAAHAIGVRIAGPEQGVALAQLTAATIRAVAQGVIGVALIQAVLAGLGFLLAGVPAAGLWAIVALLICIVQLPLFLLMVPMVVYVFLNNTPTVAAVFAVWCLLVSLCDNVLKPLMLARGVDIPIPVILIGALGGVLAAGIVGLFLGSVGFGLGYVLFMQWVRQQSPAG	failed
MQTFAPGTRVYHLIIIVFFFFFCLSSFFASIVMADEYTGEATGSSEAKVHIIYTEKPTDEEPKTYHLRTLSSALGSEEAAKDALIYSYKEAASGFSAKLTPEQVAEISKQPGVIQVVPSQTYQLHKPGGGGGFKLT	failed
MQTFFQDTMATPLGELLIIADENNHLRAVEWREYEDGLFRSLNRSYRNDPFSLQSRHNPGGLTDSLQRYFDGELAIIDTLPVASVGTEFQQQVWRELRRIPCGEITTYGELATLLGRTGAARAVGMANGSNPISIVVPCHRVIGTGGALTGYAGGIHRKQWLLAHEGYLPHQNSLPL	failed
MQTKKAFLYVFNTMSDWEYGYLIAELNSGRYFKKDLAPLKVITVGANKEMITTMGGLRIKPDISLDECTLESKDLLILPGGTTWSEEIHQPILERIGQALKIGTIVAAICGATDALANMGYLDTRKHTSNNLEYTKMVCPNYKGEKFYELGPAVSDANLVTASGIAPLEFAMEVLKKIDVFTLDALHSWYNLNKTHKPEYFFQLMNSINK	not failed
MQTPSKKYVVDIWSDFVCPWCWIAKRRFENALNRSGMQDDVQVNVRAYRLAANQAPEPMIGALKRKLGNPASADSMMSTVSKYGRADGLDYRFDTMMFGDTADAHILVKAVEDTAVKKRLVEALYEQSTSHGRSLFDRSSLEAIAREVGVSDESIQLAWSSVELRNEMKDDESFAAQLGSGVPLFVFDSSFSVSGAQPDAVFLEALNKMVANSNPEDSSMMGQVCSIDGCKV	not failed
MQTQIKVRGYHLDVYQHVNNARYLEFLEEARWDGLENSDSFQWMTAHNIAFVVVNININYRRPAVLSDLLTITSQLQQLNGKSGILSQVITLEPEGQVVADALITFVCIDLKTQKALALEGELREKLEQMVK	not failed
MQTVLKKRKKSGYGYIPDIADIRDFSYTPEKSVIAALPPKVDLTPSFQVYDQGRIGSCTANALAAAIQFERIHDKQSPEFIPSRLFIYYNERKIEGHVNYDSGAMIRDGIKVLHKLGVCPEKEWPYGDTPADQKTEEFPPGAPASKKPSDQCYKEARNYKITEYSRVAQDIDHLKACLAAGSPFVFGFSVYNSWVGNNSLPVKIPLPTKNDKLEGGHAVLCVGYDDEIRHFRIRNSWGNNVGENGYFWMPYEYIRNRQLADDFWVIKTVRK	failed
MQTVQALLTAAKVDGAKSPYDTIHIKVLYPAKNTDSNLEKSWGMLPIDTAQAPLPVMIFFNGFNCDAQKYQWLGIELAQTGLVVVMFNWVGESLPGLVSFTPGFEIEKRKREFYGTAPTASALPAILTTLAQLQREGILAGTLDLEKIILGGHSEGGRVAMENANPNFFPQVVASFAYGSHTAGAVMLGYKPNTILPLPDTLPRLVIGGTHDGVIASSSSHFGLNTKDATTPVIRTFQEAIMGGHENSYLLILRGANHFSIVDIVDSTLALPFKDIPATQPQEHFRLLLATIIHLFIDAHVRHQPEAFQKLEQL	failed
MQTVRGWLTLPLALLIVLTGCMAVLSALVIEVQAGATSWIIGESHWSKAQQESVYWLERYLGSADPADLQAACRALEVPLGDRAARLAVDASPIDWAEVYAGLAAGRNAREDMPQMVRLYRYGQRLPYLGSAIALWKHTDGDILHLSLLADRAASAQATGTPDARALQSLRAELHLLDGRMRRDAAQFLTLLTRCARMLHDVMVTCSLATLLLVLSTCVLAIRRTRDYLMSHEGRFRTAFQHAALGMVKFDLSGRVLDANASLANILQYPPEALQACTLAEVMHPDDIVLDSRGLIDWPRLMQAGELRFLRSDGGVLWGRWSASLVEPGPQEPSLVLAVIEDVSQAHELADEVAYHARHDALTGLINRREIERRLQRLIDPPQSPQLCHALCFVDLDHFKLVNDTFGHAVGDKFLCHFADVITMQLRPGDWLGRLGGDEFAILLANTDLAHAHTLLERMHGVLGQPWSHQGGRPLTPSCSFGVVEIRQGADDVNLLMTAADLACHAAKEEGRNRIRSFGETDLAMARRRHDGGWISAVQQAIAEDRLLLYAQKIQVLSDPGRVQYEVLVRMRTRDGRVLSPGEFLPAVERYGLGRMVDAHVLETLCAQLSANPAHVASLDLCHVNLSAQSIAQRDFLDFVCALFERYPALVAKLCLEITETAVIGDLEHAQRFVQSVRARGCHVALDDFGSGLASFGYLKQFTVDVLKIDCGFVRNYAHDAVDRATVHSIAQVGLALGIEVVAEGVESEADIAGLREAGVGQVQGFSLHRPCPLDDLLHVSLPSLAAS	failed
MQVKENKQLCLISLGCSKNLVDSEVMLGKLYNYTLTNDAKSADVILINTCGFIESAKQESIQTILNAAKDKKEGAILIASGCLSERYKDEIKELIPEVDIFTGVGDYDKIDIMIAKKQNQFSEQVFLSEHYNARIITGSSVHAYVKISEGCNQKCSFCAIPSFKGKLQSRELDSILKEVENLALKGYTDMTFIAQDSSSFLYDKGQKDGLIQLIRAIDKQQALKSARILYLYPSSTTLELIGAIESSPIFQNYFDMPIQHISDSMLKKMRRNSSQAHHLKLLDAMKQVKESFIRSTIIVGHPEENESEFEELSAFLDEFQFDRLNIFAFSAEENTHAYSLEKVPKKTINARIKALNKIALKHQNHSFKALLNKPIKALVENKEGEYFYKARDLRWAPEVDGEILINDSELTTPLKPGHYTIAPSEFKDNILLAKVLSPF	failed
MQVKTEEKSVNNKKLIPFWVIERALEGDIQAINKILKHYEGYIAKLSVRKMYDEYGCVHYCVDETLRRRLETKLIKTIIGFKIVRLEHHHHHH	not failed
MQVQVSGKHVDVGEALRARVSDEIALSIGKYFDRGGAAEVVVSKEGYAFRVDCSVKLASGQQLISHGSGGDAHAAFDAALAKIDTRIRRYKRRLKSHSAAATAKQVENAAMFVLRAPESDDVDEDWDIEDDHPTGAPAAMVIAETQAAMKTMTVSMAVMELDLTAYPAIVFRNAAHGGISVVYRRPDGNIGWIDPERTKSNGHGSTAS	failed
MQVTFHPRACRFLKTRKAEKPNNEPLYASTSNRETIGDTGMSNPWIAIGALAVVALAIPLTMMAVSSLLRPSVPEQGKRTTYESGEVPTGSSRQIKFNIQYYMVALLFVVFDIETVFIFPWTVIYSDAAAELGMTTALLPMVVFITILAIGLGWAWRNGAVQWVRSPRATKGADTYE	failed
MQYANAYQAYQHNRVSVESPAKLIEMLYEGILRFSSQAKRCIENEDIEKKIYYINRVTDIFTELLNILDYEKGGEVAVYLTGLYTHQIKVLTQANVENDASKIDLVLNVARGLLEAWREIHSDELA	failed
MQYAYPLLAIFIWAGNTVINKLAVGAIFPAEIGFYRWLLAGLLFTPFMLKPVIKHWPEVRPNLWRIAILGVLGMAVYQSLAYFAASLTSATNMGIILSLMPLMSLAMAIAALGQRLTAGALVGAVLSFAGVLVVVSSGSLAALLQHGVNLGDAMMLVATLAYAIYSTLLKKWQLRLPPLVLLYLQVLVAVVVLLPLFLASPKVGPTLQNIPLVLYACLLASMLAPLAWMQAVVRLGPSRTTLFFNLLPLITALIAAVVLHEQLAWFHLVGGLLTLGGVILSERWTTVLGPLAGKPASAGQR	failed
MQYGAIVVTFNRKQLLIESITALLNQTVPPAKIIIIDNHSTDGTKAELQTADILANPSVDYRYLTKNIGGAGGFARGMQIAAADPNLDWASMSDDDAIFEPDYFEKLIAYQQDHPNRQILTGSVYIEDGRLQADQRNRFTNWSTFQAQAVPEREYRGNFEFDQYTFCGVFMSVAVIKQVGVADAGYFIWWDDCEYAVRTAKLSRPVNVSAAKLIHKTALPSLDFKSKFVPDWRLYYGQRNRLITIKRWRANSLVSLGWLLGFYARLAIQLCGPFYRGYRKMVIRVYLEALRDASREREGLNPNFMPGQKFLEHHHHHH	not failed
MQYLIVKYSHQIFVTITILVFNIRFFLLWKNPEKPLVGFWKALPHLNDTMLLFTGLWLMKITHFSPFNAPWLGTKILLLFAYIALGMVMMRARPRSTKFYTVYLLAMCCIACIVYLAKTKVLPF	failed
MQYPPRLGFGTWQAPPEAVQTAVETALMTGYRHIDCAYVYQNEEAIGRAFGKIFKDASSGIKREDVWITSKLWNYNHRPELVREQCKKTMSDLQVDYLDLFLVHWPLAFVRNDVGDLFPKDAEGRAMLEKVPLADTWRAMEQLVEEGLVKHIGVSNYTVPLLADLLNYAKIKPLVNQIEIHPWHPNDATVKFCLDNGIGVTAYSPMGGSYADPRDPSGTQKNVILECKTLKAIADAKGTSPHCVALAWHVKKWNTSMYSVIPKSQTPARIEANFKCTEVQLSDDDMDAINNIHLNKRIRFCDPAIFWKVPLFD	not failed
